Data: patent US20210317204A1 (ALMAC DISCOVERY, published 2021)

Experiments:
[1] = target: T1, mouse ROR1 extracellular domain-Fc fusion (mouse, UniProt Q9Z139 30-406); test: SPR, mROR1 on chip
T1 construct: extracellular domain; also called mROR1; mouse ROR1-Fc

[2] = target: T2, rat ROR1 extracellular domain-Fc fusion (rat, UniProt D3ZZ97 30-406); test: SPR, rROR1 on chip
T2 construct: extracellular domain; also called rROR1

[3] = target: T3, human ROR1 extracellular domain-Fc fusion (human, UniProt Q01973 30-406); test: SPR, ROR1-hFc on chip; E. coli
T3 construct: extracellular domain; also called hROR1; ROR1-hFc

[4] = target: T2, rat ROR1 extracellular domain-Fc fusion; test: ELISA on coated rat ROR1-Fc
[5] = target: T4, human ROR2 extracellular domain-Fc fusion (human, UniProt Q01974 34-403); test: ELISA on coated human ROR2-Fc
T4 construct: extracellular domain; also called hROR2; ROR2-hFc

[6] = target: T5, mouse serum albumin (mouse, UniProt P07724 25-608); test: SPR, albumin on chip
T5 construct: also called MSA

[7] = target: T6, rat serum albumin (rat, UniProt P02770 25-608); test: SPR, albumin on chip
T6 construct: also called RSA

[8] = target: T4, human ROR2 extracellular domain-Fc …; test: SPR
[9] = target: T7, B1 VNAR (C-terminal His6 or His6Myc tag, not said which); test: competition ELISA: VNAR pre-incubated with peptide 5, residual binding to coated huROR1-Fc [continued]
T7 construct: shark VNAR domain; also called VNAR B1; B1 monomer

[10] = target: T8, D3 VNAR; test: as above
T8 construct: shark VNAR domain; also called D3 WT; D3 monomer; not shown: C-terminal His6 or His6Myc tag (His6Myc in flow cytometry)

[11] = target: T9, D3-[G4S]5-D3 homodimer; test: as above
T9 construct: also called D3-D3; D3D3; not shown: C-terminal His6 or His6Myc tag (His6Myc in flow cytometry)
T9 sequence (chain, as listed by the source): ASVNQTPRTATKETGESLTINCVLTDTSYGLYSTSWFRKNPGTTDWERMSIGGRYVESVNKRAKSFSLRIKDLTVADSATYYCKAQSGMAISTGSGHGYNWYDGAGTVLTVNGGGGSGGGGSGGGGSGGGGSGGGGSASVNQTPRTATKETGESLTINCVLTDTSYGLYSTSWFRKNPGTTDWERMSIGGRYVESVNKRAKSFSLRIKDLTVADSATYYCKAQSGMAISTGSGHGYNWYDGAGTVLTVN

T1 sequence (Q9Z139 30-406): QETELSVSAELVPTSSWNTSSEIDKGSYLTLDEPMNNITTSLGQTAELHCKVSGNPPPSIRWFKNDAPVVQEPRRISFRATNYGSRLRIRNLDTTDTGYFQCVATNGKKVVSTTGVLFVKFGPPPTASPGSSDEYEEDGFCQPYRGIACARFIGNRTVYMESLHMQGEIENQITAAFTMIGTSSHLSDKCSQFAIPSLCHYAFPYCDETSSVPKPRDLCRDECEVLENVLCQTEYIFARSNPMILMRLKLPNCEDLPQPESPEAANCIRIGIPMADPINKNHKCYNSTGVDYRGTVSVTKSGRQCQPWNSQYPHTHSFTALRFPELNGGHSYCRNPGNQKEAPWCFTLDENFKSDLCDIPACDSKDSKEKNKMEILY
T8 sequence (chain, as listed by the source): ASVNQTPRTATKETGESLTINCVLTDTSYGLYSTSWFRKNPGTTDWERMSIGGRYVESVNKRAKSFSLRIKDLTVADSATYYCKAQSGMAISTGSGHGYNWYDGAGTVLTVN
T7 sequence (chain, as listed by the source): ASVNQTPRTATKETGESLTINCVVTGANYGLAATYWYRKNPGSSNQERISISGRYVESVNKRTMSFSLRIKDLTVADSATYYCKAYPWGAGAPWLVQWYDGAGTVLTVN
T5 sequence (P07724 25-608 limits assumed): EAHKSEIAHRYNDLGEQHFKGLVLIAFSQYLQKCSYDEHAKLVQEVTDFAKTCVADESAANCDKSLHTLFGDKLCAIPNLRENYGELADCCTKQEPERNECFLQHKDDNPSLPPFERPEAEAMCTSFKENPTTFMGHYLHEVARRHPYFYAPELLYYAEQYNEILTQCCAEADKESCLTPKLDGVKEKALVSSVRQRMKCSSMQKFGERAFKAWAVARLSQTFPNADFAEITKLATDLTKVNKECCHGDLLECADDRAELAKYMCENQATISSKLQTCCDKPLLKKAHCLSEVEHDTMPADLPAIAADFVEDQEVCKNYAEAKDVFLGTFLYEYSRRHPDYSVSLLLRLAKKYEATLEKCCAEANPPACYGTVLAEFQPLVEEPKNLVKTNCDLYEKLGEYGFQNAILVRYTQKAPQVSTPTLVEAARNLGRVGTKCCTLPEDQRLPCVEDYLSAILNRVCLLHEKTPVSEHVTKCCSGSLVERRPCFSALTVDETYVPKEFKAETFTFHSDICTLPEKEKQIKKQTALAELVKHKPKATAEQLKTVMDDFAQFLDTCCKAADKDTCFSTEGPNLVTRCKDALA
T6 sequence (P02770 25-608 limits assumed): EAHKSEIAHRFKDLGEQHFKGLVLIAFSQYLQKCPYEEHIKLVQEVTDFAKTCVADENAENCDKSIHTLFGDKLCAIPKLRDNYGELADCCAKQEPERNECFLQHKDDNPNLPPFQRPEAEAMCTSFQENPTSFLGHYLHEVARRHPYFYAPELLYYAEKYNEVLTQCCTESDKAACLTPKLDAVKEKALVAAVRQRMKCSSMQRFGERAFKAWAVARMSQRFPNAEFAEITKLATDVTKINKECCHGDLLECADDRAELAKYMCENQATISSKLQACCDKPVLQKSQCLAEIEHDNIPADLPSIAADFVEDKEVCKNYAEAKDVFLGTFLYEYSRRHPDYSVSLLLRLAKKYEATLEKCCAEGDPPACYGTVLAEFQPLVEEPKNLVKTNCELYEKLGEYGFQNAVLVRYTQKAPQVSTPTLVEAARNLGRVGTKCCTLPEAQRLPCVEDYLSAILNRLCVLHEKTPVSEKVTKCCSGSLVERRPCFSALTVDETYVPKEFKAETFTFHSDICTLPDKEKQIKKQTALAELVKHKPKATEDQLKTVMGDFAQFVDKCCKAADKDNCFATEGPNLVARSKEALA

B1: P3A1 VNAR (C-terminal His6 or His6Myc tag, not said which) (VNAR, not shown: small tags and cut ends)
VNAR: TRVDQTPRTATKETGESLTINCVLTDTSYGLYSTSWFRKNPGTTDWERMSIGGRYVESVNKGAKSFSLRIKDLTVADSATYYCKAREARHPWLRQWYDGAGTVLTVN
notes: shark VNAR domain; also called P3A1 monomer
Kd [1]: 14.3 nM
koff [1]: 0.0408 s⁻¹
kon [1]: 2.95e+06 M⁻¹ s⁻¹
Kd [2]: 17.7 nM
koff [2]: 0.045 s⁻¹
kon [2]: 2.86e+06 M⁻¹ s⁻¹
Kd [3]: 19.1 nM
koff [3]: 0.0442 s⁻¹
kon [3]: 2.47e+06 M⁻¹ s⁻¹
EC50 (read off the curve) [4]: ~0.3 µg/mL
binding result [5]: no binding (tested: 10 ug/ml)

B2: 2V control VNAR (VNAR, not shown: small tags and cut ends)
VNAR: TRVDQTPRTATKETGESLTINCVLTDTSYGLYSTSWFRKNPGTTDWERMSIGGRYVESVNKGAKSFSLRIKDLTVADSATYYCKAQSLAISTRSYWYDGAGTVLTVN
notes: control VNAR from a naive library, no known target; also called 2V monomer
binding result [6]: no binding
binding result [7]: no binding
binding result [8]: no binding
binding result [1]: no binding
binding result [2]: no binding

B3: peptide 5 (peptide)
peptide: RSTIYGSRLRIRNLDTTDTGYFQ
notes: also called ROR1 ECD Peptide 5
binding result [9]: no binding (tested: 1000 nM)
binding result [10]: no binding (tested: 1000 nM)
binding result [11]: no binding (tested: 1000 nM)
